T1: His6-PfAtg3 (P. falciparum 3D7, UniProt C0H519 1-313)
T1 sequence (looked up): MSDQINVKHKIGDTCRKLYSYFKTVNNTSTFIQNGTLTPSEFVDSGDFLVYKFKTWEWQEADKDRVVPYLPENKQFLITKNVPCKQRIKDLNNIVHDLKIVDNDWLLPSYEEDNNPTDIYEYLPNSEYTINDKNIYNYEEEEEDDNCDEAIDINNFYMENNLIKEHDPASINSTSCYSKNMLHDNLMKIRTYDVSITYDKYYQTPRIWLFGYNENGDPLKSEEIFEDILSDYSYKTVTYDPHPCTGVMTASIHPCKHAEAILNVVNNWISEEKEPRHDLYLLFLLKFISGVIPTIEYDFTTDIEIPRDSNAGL

B1: His6-PfAtg8 wild type (natural protein, P. falciparum 3D7, UniProt Q8IJK2 1-124, looked up)
chain: MPSLKDEVSFENRVAETHKIRSKYPNRIPVVCERANRSNLPIIEKKKFLVPMNMLVGEFKFILHQHINQSAYGSNMKLFRERTIYLFVNNIVPKTGLLMQDLYEMYKDEDGYLYMEYSCESCLG
B2: MBP-PfAtg3 (enzyme)
chain: T1 sequence (looked up)

What was measured:
[1] = target: T1, His6-PfAtg3; assay: SEC + other: dynamic light scattering
[2] = target: His6-PfAtg8 L49A (P. falciparum 3D7, UniProt Q8IJK2 1-124, L49A); assay: pull-down
[3] = target: His6-PfAtg8 R27E (P. falciparum 3D7, UniProt Q8IJK2 1-124, R27E); assay: pull-down
[4] = target: His6-PfAtg8 E44A/K45S/K46A (P. falciparum 3D7, UniProt Q8IJK2 1-124, E44A | K45S | K46A); assay: pull-down
[5] = target: His6-PfAtg8 K47E (P. falciparum 3D7, UniProt Q8IJK2 1-124, K47E); assay: pull-down

Binder	stoichiometry N [1]	binding result [2]	binding result [3]	binding result [4]	binding result [5]
B1	1	–	–	–	–
B2	–	binds	binds	binds	binds

Source: publication PMC3496014 (Journal of structural biology, 2012)
